# Test results as given in the supplement of paper PMC10567573.
# B1: TRIM63 (parent)
# chain: QRITQEQEKKLSFIEALIQQYQEQ
# Variants of: B1
# Experiment: protein stability index of a GFP-peptide fusion (GPS, HEK-293T) (PSI 1-6); higher = more stable
# Conditions: c terminus: a fixed tail appended
# 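Also: lentivirally expressed fusions sorted by FACS into six bins by GFP to DsRed ratio, PSI derived from sequencing read proportions per bin multiplied by bin number.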
row,Variant,protein stability index
1,QRITQEQEKKLSFIEADIQQYQEQ [L17D],4.58
2,QRITQEQEKKLSFIEAAIQQYQEQ [L17A],3.42
3,QRITQEQEKKLSFIEASIQQYQEQ [L17S],4.13
4,QRITQEQEKKLSFIEARIQQYQEQ [L17R],4.34
5,QRITQEQEKKLSFIEAFIQQYQEQ [L17F],2.62
6,QRITQEQEKKLSFIEAHIQQYQEQ [L17H],3.06
7,QRITQEQEEKLSFIEALIQQYQEQ [K9E],3.27
8,QRITQEQESKLSFIEALIQQYQEQ [K9S],2.7
9,QRITQEQECKLSFIEALIQQYQEQ [K9C],2.29
10,QRITQEQEHKLSFIEALIQQYQEQ [K9H],2.6
11,QRITQEQELKLSFIEALIQQYQEQ [K9L],1.88
12,QRITQEQEPKLSFIEALIQQYQEQ [K9P],3.01
13,QRITQEQEIKLSFIEALIQQYQEQ [K9I],1.79
14,QRITQEQEKKLSFILALIQQYQEQ [E15L],2.56
15,QRITQEQEKKLSFIYALIQQYQEQ [E15Y],2.34
16,QRITQEQEKKLSFIWALIQQYQEQ [E15W],2.5
17,QRITQEQEKKLSFICALIQQYQEQ [E15C],1.44
18,QRITQEQEKKLSFIIALIQQYQEQ [E15I],1.6
19,QRITQEQEKKLSFIKALIQQYQEQ [E15K],2.11
20,QEITQEQEKKLSFIEALIQQYQEQ [R2E],1.88
21,QFITQEQEKKLSFIEALIQQYQEQ [R2F],2.06
22,QLITQEQEKKLSFIEALIQQYQEQ [R2L],2.63
23,QYITQEQEKKLSFIEALIQQYQEQ [R2Y],1.75
24,QAITQEQEKKLSFIEALIQQYQEQ [R2A],2.57

row,Variant,protein stability index
1,QDITQEQEKKLSFIEALIQQYQEQ [R2D],3.23
2,QCITQEQEKKLSFIEALIQQYQEQ [R2C],2.85
3,QNITQEQEKKLSFIEALIQQYQEQ [R2N],2.91
4,QRITQEQEKKLSFQEALIQQYQEQ [I14Q],3.22
5,QRITQEQEKKLSFYEALIQQYQEQ [I14Y],2.87
6,QRITQEQEKKLSFLEALIQQYQEQ [I14L],2.23
7,QRITQEQEKKLSFGEALIQQYQEQ [I14G],4.31
8,QRITQEQEKKLSFTEALIQQYQEQ [I14T],2.35
9,QRITQEQEKKLSFFEALIQQYQEQ [I14F],3
10,QRITQEQEKKLSFAEALIQQYQEQ [I14A],2.41
11,QRITQFQEKKLSFIEALIQQYQEQ [E6F],1.9
12,QRITQTQEKKLSFIEALIQQYQEQ [E6T],1.7
13,QRITQCQEKKLSFIEALIQQYQEQ [E6C],1.83
14,QRITQWQEKKLSFIEALIQQYQEQ [E6W],1.43
15,QRITQSQEKKLSFIEALIQQYQEQ [E6S],2.09
16,QRITQHQEKKLSFIEALIQQYQEQ [E6H],1.71
17,QRITQRQEKKLSFIEALIQQYQEQ [E6R],1.88
18,QRITQGQEKKLSFIEALIQQYQEQ [E6G],2.39
19,QRITQDQEKKLSFIEALIQQYQEQ [E6D],2.12
20,QRITQEQEKKLIFIEALIQQYQEQ [S12I],2.12
21,QRITQEQEKKLYFIEALIQQYQEQ [S12Y],1.85
22,QRITQEQEKKLKFIEALIQQYQEQ [S12K],1.91
23,QRITQEQEKKLLFIEALIQQYQEQ [S12L],2.39
24,QRITQEQEKKLHFIEALIQQYQEQ [S12H],2.9

row,Variant,protein stability index
1,QRITQEQEKKLSFIEALIQQYQEM [Q24M],2.57
2,QRITQEQEKKLSFIEALIQQYQEV [Q24V],2.24
3,QRITQEQEKKLSFIEALIQQYQEW [Q24W],1.46
4,QRITQEQEKKLSFIEALIQQYQEH [Q24H],2.49
5,QRITQEQEKKLSFIEALIQQYQED [Q24D],1.82
6,QRITQEQEKKLSFIEALIQQYQEA [Q24A],2.41
7,QRITQEQEKKLSFIEALIQQYQEK [Q24K],2.06
8,QRITQEQEKKLSFIEALIQQYQET [Q24T],2.36
9,QRITQEQEKKLSFIECLIQQYQEQ [A16C],2.46
10,QRITQEQEKKLSFIEKLIQQYQEQ [A16K],2.25
11,QRITQEQEKKLSFIEMLIQQYQEQ [A16M],3.77
12,QRITQEQEKKLSFIEELIQQYQEQ [A16E],2.95
13,QRITQEQEKKLSFIEPLIQQYQEQ [A16P],4.08
14,QRITQEQEKKLSFIEYLIQQYQEQ [A16Y],2.31
15,QRITQEQEKKLSFIEQLIQQYQEQ [A16Q],1.83
16,QRITQEQEKKLSFIEGLIQQYQEQ [A16G],3.33
17,QRITQEQEKKLSFIEALIQFYQEQ [Q20F],2.6
18,QRITQEQEKKLSFIEALIQAYQEQ [Q20A],2.11
19,QRITQEQEKKLSFIEALIQVYQEQ [Q20V],1.42
20,QRITQEQEKKLSFIEALIQMYQEQ [Q20M],2.36
21,QRITQEQEKKLSFIEALIQKYQEQ [Q20K],5.33
22,QRITQEQEKKLSFIEALFQQYQEQ [I18F],2.74
23,QRITQEQEKKLSFIEALYQQYQEQ [I18Y],3.29
24,QRITQEQEKKLSFIEALNQQYQEQ [I18N],3.57

row,Variant,protein stability index
1,QRITQEQEKKLSFIEALVQQYQEQ [I18V],3.12
2,QRITQEQEKKLSFIEALPQQYQEQ [I18P],4.54
3,QRITQEQEKKLSFIEALQQQYQEQ [I18Q],1.81
4,QRITQEQEKKLSFIEALAQQYQEQ [I18A],2.65
5,QRITQEQEKKLSAIEALIQQYQEQ [F13A],4.47
6,QRITQEQEKKLSHIEALIQQYQEQ [F13H],4.14
7,QRITQEQEKKLSWIEALIQQYQEQ [F13W],1.68
8,QRITQEQEKKLSSIEALIQQYQEQ [F13S],4.52
9,QRITQEQEKKLSYIEALIQQYQEQ [F13Y],2.62
10,QRITQEQEKKLSTIEALIQQYQEQ [F13T],4.78
11,QRITQEQEKKLSPIEALIQQYQEQ [F13P],4.68
12,QRITQEQEKKLSKIEALIQQYQEQ [F13K],3.59
13,QRITQEQEKKLSMIEALIQQYQEQ [F13M],3.25
14,QRITQEQEKKLSIIEALIQQYQEQ [F13I],2.62
15,QRITIEQEKKLSFIEALIQQYQEQ [Q5I],2.39
16,QRITGEQEKKLSFIEALIQQYQEQ [Q5G],2.62
17,QRITMEQEKKLSFIEALIQQYQEQ [Q5M],2.33
18,QRITPEQEKKLSFIEALIQQYQEQ [Q5P],2.13
19,QRITDEQEKKLSFIEALIQQYQEQ [Q5D],2.74
20,QRITWEQEKKLSFIEALIQQYQEQ [Q5W],1.24
21,QRITREQEKKLSFIEALIQQYQEQ [Q5R],2.24
22,QRITAEQEKKLSFIEALIQQYQEQ [Q5A],2.5
